Measurements from PMC4595836.

Biological target: T1, ScbR (Streptomyces coelicolor A3(2) M145) (UniProt Q7AKF1)
T1 sequence: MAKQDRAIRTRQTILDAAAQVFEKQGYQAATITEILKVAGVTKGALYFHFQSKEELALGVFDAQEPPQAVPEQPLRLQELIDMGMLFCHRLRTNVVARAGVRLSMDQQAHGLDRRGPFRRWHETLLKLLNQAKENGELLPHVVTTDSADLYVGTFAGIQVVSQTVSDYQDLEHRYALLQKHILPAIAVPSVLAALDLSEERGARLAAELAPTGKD
Test: DNase I footprinting
Conditions: EMSA: 6-12 ng probe, ScbR 0.21-3.77 uM, ScbR2 0.207-4.15 uM; buffer, salt, pH and temperature not in material (as described in earlier work)

CCCTCATGTCCGAACAGCTCGACACCGCCGTCGAAACAGACGGCAAGGGCGACCTCGCCACGTTGTTCAACGGTGGGGACACCTTCTCCCATTGAAAACCGGCGAGGAGGTTTGTTAATCCCATGTTCCCTGGACCGACCTGTTTCGAGATCGAGGAGGACAGTTGAGCGCCACTTCTGCCCCCGCACCCCAGCACGGCATGACCTGGCTGGGAGCCATCGTGGAGGACGGCTTCACGGAGACGTTGCAGGACGGGCTCAG (double strand) [sco6268 promoter footprint probe]
binding: binds
